{"source": "the nanobody polyreactivity screen of Harvey et al. (2022)"}
{"assay": "yeast display, Sf9 membrane polyspecificity reagent, FACS + sequencing; frameworks hold sequencing errors", "how_it_was_run": "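Polyreactivity labels are assigned by the sorting gate from which each nanobody was recovered. The gates were low and high (top ~1%), set on anti-HA fluorescence for expression and streptavidin fluorescence for reagent binding. Before sorting, galactose-induced (36–48 hours) yeast display cells were stained for 1 hour at 4 °C with 10% biotinylated, detergent-solubilized Sf9 membrane reagent.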"}
{"sequence": "QVQLVESGGGLVQAGGSLRLSSAASGLTFFTYTMGWYRQAPGKERELVATINSSGGTTYYADSVKGRFTISRDNAKNTVYLQMNSLKPEDTAVYFCAKRFSPRYYYWGQGTQVTVSS", "polyreactivity (PSR sort gate)": "high polyreactivity"}
{"sequence": "QVQLVESGGGLVQAGGSLRLSSAASGLTFKGYAIGWYRQEPGKESELVAANNGSGGSTYYADSVKRRFTISRDNAKNTVYLQMNSLKPEDTAVYYCNAARGHPYPLSDNVDDYDYWGQGTQVTVSS", "polyreactivity (PSR sort gate)": "low polyreactivity"}
{"sequence": "QVQLVESGGGLVQAGGSLRLSSAASGRIFAVYAMGWYRQAPGKEREFVAAISYSGGITYYADSVKGRFTISRDNAKNTVYLQMNSLKPEDTAVYYCNAYYYFWGQGTQVTVSS", "polyreactivity (PSR sort gate)": "low polyreactivity"}
{"sequence": "QVQLVESGGGLVQAGGSLRLSSAASGRIFPFNAMGWYRQAPGKERELVAAITSSGGRTYYADSVKGRFTISRDNAKNTVYLQMNSLTPEDTAVYYCAGTLVRRARSGPMGYWGQGTQVTVSS", "polyreactivity (PSR sort gate)": "high polyreactivity"}
{"sequence": "QVQLVESGGGLVQAGGSLRLSSAASGRIFRVNAMGLYTQAPGKERELVAAISRRGGSTYYADSVKGRFTISRDNAKNTVYLQMNTLKPEDTAVYYCAKKSYSYGYNSYYYWGQGTQVTVSS", "polyreactivity (PSR sort gate)": "high polyreactivity"}
{"sequence": "QVQLVESGGGLVQAGGSLRLSSAASGRIFSDYAMGWYRQAPGKERELVATITSGDSTNYADSVKGRFTISRDNAKNTVYLQMNSLKPEDTAVYYCNADRFADYDYWGQGTQVTVSS", "polyreactivity (PSR sort gate)": "low polyreactivity"}
{"sequence": "QVQLVESGGGLVQAGGSLRLSSAASGRIFSIYAMGWYRQAPGKERELVAAITDRGGTTHYADSVKGRFTISRDYAKNTVYLQMNSLKPEDTAVYYCASDTYDYSSVEDFDYWGQGTQVTVSS", "polyreactivity (PSR sort gate)": "low polyreactivity"}
{"sequence": "QVQLVESGGGLVQAGGSLRLSSAASGRIFSRNTMGCYRQAPGKERELVAAIRYSGGRTYYADSVKGRFTISRDNAKNTVYLQMNCLKQEDTAVYYCAARWYGQGVSYRMDYWGQGTQVTVSS", "polyreactivity (PSR sort gate)": "high polyreactivity"}
{"sequence": "QVQLVESGGGLVQAGGSLRLSSAASGRIFTYYAMGWYRQAPGKVREVVAAISFRGASTYYADSVKGRVTISRDYAQNTVYLQMHSLKPEDTAVYYGAAERIARPTIDYWGQGTQVTVSS", "polyreactivity (PSR sort gate)": "low polyreactivity"}
{"sequence": "QVQLVESGGGLVQAGGSLRLSSAASGRIFVVNAMGWYRQAPGKERELVAAISKSGARTYYADSVKGRFTISRDNAKNTVYLQMNSLKPEDTAVYYCAAESKGYSQSVFPYDYWGQGTQVTVSS", "polyreactivity (PSR sort gate)": "high polyreactivity"}
{"sequence": "QVQLVESGGGLVQAGGSLRLSSAASGRIFYGYAMGWYRQAPGKERELVAAITNTGVDTYYADSVKGRFTISRDNEKNTVYLQMNSLKPEDTAVYYCAADGRRPKSGYWGQGTQVTVSS", "polyreactivity (PSR sort gate)": "low polyreactivity"}
{"sequence": "QVQLVESGGGLVQAGGSLRLSSAASGRTFAGYTMGWYRQAPGKERELVAAITKSGGSTYYADSVKGRFTISRDNAKNTVYLQMNSLKPEDTAFYYCAARYIPSRYGTGGGYYSWGQGTQVTVSS", "polyreactivity (PSR sort gate)": "high polyreactivity"}
{"sequence": "QVQLVESGGGLVQAGGSLRLSSAASGRTFNYYPMGWYRQAPGKQWELVAAISDSAGDTYYADSVKGRFTISRDNAKNTVDLQKNSQKPEDPAVYYCAVVRGGRGYPGYDYWGQGTQVTVSS", "polyreactivity (PSR sort gate)": "low polyreactivity"}
{"sequence": "QVQLVESGGGLVQAGGSLRLSSAASGRTFQYYAMGWYRQAPGKERELVAAITSGGSTYYADSVKGRFTISRDNAKNTVSLQMNSLKPEDTAVYYCAATFYYSGHDDYWGQGTQVTVSS", "polyreactivity (PSR sort gate)": "low polyreactivity"}
{"sequence": "QVQLVESGGGLVQAGGSLRLSSAASGRTFRRYAMGWYRQAPGKERELVATITNAGSTYYADSVKGRFTISRDNAKNTVYLPMNSLKPEDTAVYYCAARVPYKSDYWGQGTQVTVSS", "polyreactivity (PSR sort gate)": "low polyreactivity"}
{"sequence": "QVQLVESGGGLVQAGGSLRLSSAASGRTFRYNAMGWYRQAPGKERELVAAISWSGTSTYYADSVKGRFTISRDNAKNTVYLQMNSLKPEDTAVYYCAARGLYDYGYWGQGTQVTVSS", "polyreactivity (PSR sort gate)": "high polyreactivity"}
{"sequence": "QVQLVESGGGLVQAGGSLRLSSAASGRTFTTYAMGWYRQAHGKERELVAAISGSGGSTYYADSVKGRFTISRDNAKNTVYLQMNSLKPEDTAVYYCATAYYYHGGYYYPYDDYWGQGTQVTVSS", "polyreactivity (PSR sort gate)": "low polyreactivity"}
{"sequence": "QVQLVESGGGLVQAGGSLRLSSAASGRTFVHYAMGWYRQAPGKERELVAAISWSGGSTYYADSVKGRFTISRDNAKNTVYLQMNSLKPEDTAVYYCNAGGFAPGRYGEFDYWGQGTQVTVSS", "polyreactivity (PSR sort gate)": "low polyreactivity"}
{"sequence": "QVQLVESGGGLVQAGGSLRLSSAASGRTFVSYAMGWYRQAPGKERELVAVITYSGGSTNYADSVKGRFTISRDNAKNTVYLQMNSLKPEDTAVYYCAATQSIPYSTLYSYDYWGQGTQVTVSS", "polyreactivity (PSR sort gate)": "low polyreactivity"}
{"sequence": "QVQLVESGGGLVQAGGSLRLSSAASGRTFYGNAMGWYRQAPGKERELVATINYSGGSTYYADSVKGRFTISRDNAKNTVYLQMNSLKPEDTAVYYCAAVDPEEFDYWGQGTQVTVSS", "polyreactivity (PSR sort gate)": "low polyreactivity"}
{"sequence": "QVQLVESGGGLVQAGGSLRLSSAASGSIFETYAMGWSRQAPGKERELVAAITQSGGSTYYADSVKGRFTISRDNAKNTVYLQMNSLKPEDTAVYYCAADLVVWWKWGYEYWGQGTQVTVSS", "polyreactivity (PSR sort gate)": "low polyreactivity"}
{"sequence": "QVQLVESGGGLVQAGGSLRLSSAASGSIFGSNAMGWYRPAPVKERELVAAISSGSTYYADSVKGRFTISRDNAKNTVYLQMNSLKPEDTAVYYCYARSLLYEFDYWGQGTQVTVSS", "polyreactivity (PSR sort gate)": "low polyreactivity"}
{"sequence": "QVQLVESGGGLVQAGGSLRLSSAASGSIFGYAMGWYRQAPGKERELVARIDWSGGRTYYADSVKGRFTISRDNAKNTVYLQMYSLKPDDTAVYYCYARRYLYRGNIVDYWGQGTQVTVSS", "polyreactivity (PSR sort gate)": "high polyreactivity"}
{"sequence": "QVQLVESGGGLVQAGGSLRLSSAASGSIFPANALGWYRQAPGKERELVAASTANGGSTYYADSVKGRFTISRDNAKNTVYLQMNSLKPEDTAVYYCNAYFVSGHAGGYDYWGQGTQETVSS", "polyreactivity (PSR sort gate)": "high polyreactivity"}
{"sequence": "QVQLVESGGGLVQAGGSLRLSSAASGSIFPYYAMGWYRQAPGKERELVAAISWSGTSTYYADSVKGRFTISRDNAKNTVYLQMNSLKPEDTAVYYCNAGYYHFYASGYDYWGQGTQVTVSS", "polyreactivity (PSR sort gate)": "low polyreactivity"}
{"sequence": "QVQLVESGGGLVQAGGSLRLSSAASGSIFRFYTMGWYRQAPGKERELVAAISASGGNTYYADSVKGRFTISRDNAKNTVYLQMNSLKPEDTAVYYCARVKFTKYDYWGQGTQVTVSS", "polyreactivity (PSR sort gate)": "high polyreactivity"}
{"sequence": "QVQLVESGGGLVQAGGSLRLSSAASGSIFSDYAMGWYRQAPGKERELVAAISGTGGGTYYADSVKGRFTISRDNAKNTVYLQMNSLKPEDTAVYYCAADYVFAWWGDYYWGQGTQVTVSS", "polyreactivity (PSR sort gate)": "high polyreactivity"}
{"sequence": "QVQLVESGGGLVQAGGSLRLSSAASGSIFVLNAMGWYRQAPGKERELVAAITNVGSTYYADSVKGRFTISRDNAKNTVYLQMNSLKPEDTAVYYCNADPGEVLVGYDYWGQGTQVTVSS", "polyreactivity (PSR sort gate)": "low polyreactivity"}
{"sequence": "QVQLVESGGGLVQAGGSLRLSSAASGSIFWVYAMGWYRQAPGKERELVAAISNRGGSTYYADSVKGRFTISRDNAKNTVYLQMNSLKPEDTAVYYCAAVVAHHYYWGQGTQVTVSS", "polyreactivity (PSR sort gate)": "high polyreactivity"}
{"sequence": "QVQLVESGGGLVQAGGSLRLSSAASGSIFYKNAKGWYRQAPGKEREFVAGISRRGGSTYYADSVKGRFTISLDNAKNTVYLQMNSLKPEDTAVYYCASSQSGGYDYWGQGTQVTVSS", "polyreactivity (PSR sort gate)": "high polyreactivity"}
